Source: patent publication US9745384B2, “Peptides useful for modulating histone demethylase function” (The Brigham and Women's Hospital, Inc., priority 2012, dated 2017)

What was measured:
[1] = test system: nucleosomes purified from HeLa; assay: Nucleosome pulldown by GST-NPAC proteins; type: binding
Description: Nucleosomes were purified from HeLa as previously described (Umlauf et al., 2004). To examine nucleosome binding selectivity of NPAC, 5 μg GST fusion protein bound to glutathione agarose were incubated with 20 μg nucleosomes overnight at 4° C. in nucleosome binding buffer (50 mM NaPO4 pH 7.4, 200 mM NaCl, 0.5% NP-40, 5% glycerol, 10 μM ZnSO4, 1 mM MgCl2, 1 mM DTT, 0.1 mM PMSF). After washing 4 times with the same buffer at 4° C., the beads were boiled in 1×SDS sample loading buffer and elute was resolved by 15% SDS-PAGE for immunoblot analysis or coomassie staining.
For free-DNA competition assays, human genomic DNA was purified from HeLa cells and fragmented to an average size around 300 bp by sonication. Equal amounts of GST-NPAC.d5 bound to glutathione beads were pre-incubated with 0, 5, 10, 25 μg genomic DNA fragments in nucleosome binding buffer for 30 minutes at room temperature, and equal amounts of nucleosomes were added and incubated overnight at 4° C. After extensive washing, GST-NPAC.d5 and bound nucleosomes were eluted by boiling in 1×SDS sample loading buffer, resolved by SDS-PAGE and stained with coomassie blue.

H3Kc36me3 nucleosomes = assay: MLA nucleosome pulldown by GST-NPAC.d1; type: binding; conditions: H3Kc36me3, H3Kc79me3, H3Kc9me3, H3Kc27me3, unmodified
Description: MLA nucleosomes were reconstituted using 147 bp double-strand alpha satellite DNA and recombinant histones expressed and purified from E. coli. Tri-methylation was chemically introduced to H3K9C, H3K27C, H3K36C and H3K79C histones respectively as described (Simon et al., 2007). 2 μg MLA nucleosome was used for GST-pulldown as described above.

double strand DNA = assay: DNA binding assay (GST-pulldown)
Description: 5-10 μg GST and GST-tagged NPAC truncation proteins were incubated with 1 μg linearized plasmid DNA overnight at 4° C. in 50 mM Tris pH 7.4, 200 mM NaCl, 0.2% NP-40, 1 mM MgCl2, 1 mM EDTA, 1 mM DTT, 0.02 mM ZnSO4. After extensive washing with the same buffer, bound DNA was eluted by incubating with 100 μl 10 mM Tris pH 8.0, 1% SDS for 15 minutes at 65° C. Pulldown DNA was purified using Qiagen PCR purification kit, resolved by agarose gel electrophoresis and stained with Ethidium Bromide.

Nucleosome binding (GST-pulldown) [1]: strong binding to nucleosomes
DNA binding (GST-pulldown) (double strand DNA): can bind to double strand DNA
B1: NPAC.d1: Example 2 GST-NPAC truncation, residues 1-150 (protein, UniProt Q49A26 1-150, looked up, fragment)
chain: MAAVSLRLGDLVWGKLGRYPPWPGKIVNPPKDLKKPRGKKCFFVKFFGTEDHAWIKVEQLKPYHAHKEEMIKINKGKRFQQAVDAVEEFLRRAKGKDQTSSHNSSDDKNRRNSSEERSRPNSGDEKRKLSLSEGKVKKNMGEGKKRVSSG
modifications: GST tag
Binding to modification-specific MLA nucleosomes (H3Kc36me3 nucleosomes): highest binding affinity for H3Kc36me3 nucleosomes over H3Kc79me3
